Test results from patent US20200199241A1 (Chugai, published 2020).

B1: IgG1-F939 (antibody)
heavy: QVQLQESGPGLVKPSETLSLTCAVSGHSISHDHAWSWVRQPPGEGLEWIGFISYSGITNYNPSLQGRVTISRDNSKNTLYLQMNSLRAEDTAVYYCARSLARTTAMDYWGEGTLVTVSSASTKGPSVFPLAPSSKSTSGGTAALGCLVKDYFPEPVTVSWNSGALTSGVHTFPAVLQSSGLYSLSSVVTVPSSSLGTQTYICNVNHKPSNTKVDKKVEPKSCDKTHTCPPCPAPELRGGPKVFLFPPKPKDTLYISRTPEVTCVVVDVSHEDPEVKFNWYVDGVEVHNAKTKPREEQYNSTYRVVSVLTVLHQDWLNGKEYKCKVSNKALPAPIEKTISKAKGQPREPQVYTLPPSRDELTKNQVSLTCLVKGFYPSDIAVEWESNGQPENNYKTTPPVLDSDGSFFLYSKLTVDKSRWQQGNVFSCSVMHEALHYHVTQKSLSLSP
light: not shown
notes: copies: 2 + 2
B2: IgG1-F944 (antibody)
heavy: QVQLQESGPGLVKPSETLSLTCAVSGHSISHDHAWSWVRQPPGEGLEWIGFISYSGITNYNPSLQGRVTISRDNSKNTLYLQMNSLRAEDTAVYYCARSLARTTAMDYWGEGTLVTVSSASTKGPSVFPLAPSSKSTSGGTAALGCLVKDYFPEPVTVSWNSGALTSGVHTFPAVLQSSGLYSLSSVVTVPSSSLGTQTYICNVNHKPSNTKVDKKVEPKSCDKTHTCPPCPAPELLGGPSVFLFPPKPKDVLYISRTPEVTCVVVDVSHEDPEVKFNWYVDGVEVHNAKTKPREEQYNSTYRVVSVLTVLHQDWLNGKEYKCKVSNKALPAPIEKTISKAKGQPREPQVYTLPPSRDELTKNQVSLTCLVKGFYPSDIAVEWESNGQPENNYKTTPPVLDSDGSFFLYSKLTVDKSRWQQGNVFSCSVMHEALHYHVTQKSLSLSP
light: not shown
notes: EU numbering; copies: 2 + 2
B3: IgG1-F942 (antibody)
heavy: QVQLQESGPGLVKPSETLSLTCAVSGHSISHDHAWSWVRQPPGEGLEWIGFISYSGITNYNPSLQGRVTISRDNSKNTLYLQMNSLRAEDTAVYYCARSLARTTAMDYWGEGTLVTVSSASTKGPSVFPLAPSSKSTSGGTAALGCLVKDYFPEPVTVSWNSGALTSGVHTFPAVLQSSGLYSLSSVVTVPSSSLGTQTYICNVNHKPSNTKVDKKVEPKSCDKTHTCPPCPAPELKGGPKVFLFPPKPKDTLYISRTPEVTCVVVDVSHEDPEVKFNWYVDGVEVHNAKTKPREEQYNSTYRVVSVLQVLHADWLNGKEYKCKVSNKALPAPIEKTISKAKGQPREPQVYTLPPSRDELTKNQVSLTCLVKGFYPSDIAVEWESNGQPENNYKTTPPVLDSDGSFFLYSKLTVDKSRWQQGNVFSCSVMHEALHYHVTQKSLSLSP
light: not shown
notes: EU numbering; copies: 2 + 2
B4: IgG1-F943 (antibody)
heavy: QVQLQESGPGLVKPSETLSLTCAVSGHSISHDHAWSWVRQPPGEGLEWIGFISYSGITNYNPSLQGRVTISRDNSKNTLYLQMNSLRAEDTAVYYCARSLARTTAMDYWGEGTLVTVSSASTKGPSVFPLAPSSKSTSGGTAALGCLVKDYFPEPVTVSWNSGALTSGVHTFPAVLQSSGLYSLSSVVTVPSSSLGTQTYICNVNHKPSNTKVDKKVEPKSCDKTHTCPPCPAPELRGGPKVFLFPPKPKDTLYISRTPEVTCVVVDVSHEDPEVKFNWYVDGVEVHNAKTKPREEQYNSTYRVVSVLQVLHADWLNGKEYKCKVSNKALPAPIEKTISKAKGQPREPQVYTLPPSRDELTKNQVSLTCLVKGFYPSDIAVEWESNGQPENNYKTTPPVLDSDGSFFLYSKLTVDKSRWQQGNVFSCSVMHEALHYHVTQKSLSLSP
light: not shown
notes: EU numbering; copies: 2 + 2
B5: IgG1-F940 (antibody)
heavy: QVQLQESGPGLVKPSETLSLTCAVSGHSISHDHAWSWVRQPPGEGLEWIGFISYSGITNYNPSLQGRVTISRDNSKNTLYLQMNSLRAEDTAVYYCARSLARTTAMDYWGEGTLVTVSSASTKGPSVFPLAPSSKSTSGGTAALGCLVKDYFPEPVTVSWNSGALTSGVHTFPAVLQSSGLYSLSSVVTVPSSSLGTQTYICNVNHKPSNTKVDKKVEPKSCDKTHTCPPCPAPELLGGDSVFLFPPKPKDVLYISRTPEVTCVVVDVSHEDPEVKFNWYVDGVEVHNAKTKPREEQYNSTYRVVSVLTVLHQDWLNGKEYKCKVSNKALPAPIEKTISKAKGQPREPQVYTLPPSRDELTKNQVSLTCLVKGFYPSDIAVEWESNGQPENNYKTTPPVLDSDGSFFLYSKLTVDKSRWQQGNVFSCSVMHEALHYHVTQKSLSLSP
light: not shown
notes: EU numbering; copies: 2 + 2

Each binder was assayed against T1, soluble human FcRn complexed with β2-microglobulin (human, UniProt P61769 21-119, limits assumed) (assay: Biacore SPR, pH 7.0;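 also: test antibodies captured on a Protein L chip with human FcRn flowed over as analyte, KD obtained as the ratio of dissociation to association rate constants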).
T1 construct: also called hFcRn
T1 sequence (chain, as listed by the source limits assumed, chain 1 of 2): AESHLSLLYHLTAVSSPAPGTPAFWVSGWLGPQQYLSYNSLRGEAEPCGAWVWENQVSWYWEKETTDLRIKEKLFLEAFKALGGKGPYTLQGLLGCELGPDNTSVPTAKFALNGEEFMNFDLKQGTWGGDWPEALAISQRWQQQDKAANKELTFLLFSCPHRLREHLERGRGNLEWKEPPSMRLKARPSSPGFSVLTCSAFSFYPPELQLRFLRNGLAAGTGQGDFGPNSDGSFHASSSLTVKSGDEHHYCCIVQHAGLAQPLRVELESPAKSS
T1 sequence (P61769 21-119 limits assumed, chain 2 of 2): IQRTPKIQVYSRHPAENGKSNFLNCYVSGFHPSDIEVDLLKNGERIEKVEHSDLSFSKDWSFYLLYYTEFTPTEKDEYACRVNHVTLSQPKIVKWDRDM
B1 was tested, and the Kd was 150 nM. B2 was tested, and the Kd was 170 nM. Work on B3 yielded a Kd of 42 nM. Binder B4 has a Kd of 40 nM. B5 was tested, and the Kd was 150 nM.
